Assay results taken from the DeepSol protein solubility set.

experiment: soluble on expression in E. coli; label from the status in PepcDB or PDB records

Row | Sequence | soluble on expression in E. coli
1 | MILVGDGEDLEPPDDFLRREVADSVLNLLGDYRFLTKGYFVSLHAEENGCEVFPPVKNALDAYRAPLFMNAVRKLGLETPEFSIRSEPKFERGVLLPLNPFSKNSAKVVKTSHQYAKAFKRLSMNRYPVVQVKSEKYDSFNLYLWRADKEEYNFIAEKIFKGLRIPLGKVLVDVTDGMAKPFYFMPVEKGEINLRLVFEVLYENCLLR | not soluble
2 | MGSDKIHHHHHHMTIYYNEMVDGGLVREPYAMLSDWIETMPAEIRQMKQAEAEALFRRIGITFAVYGEGGDPDRLIPFDMMPRVFLQGEWRRLERGIKQRARGLNAFLRDVYGRGEIVRAGRIPAPLVYRNAAYEKAVVGFVPPRGVFSHIVGIDIVRTGRDEFHVLEDNCRTPSGVSYMLENREIMMRMFPALFRNNRIEPVDQYPELLRRTLASVAPAKCEGEPTVVILTPGHYNSAYYEHSFLANLMGVELVEGSDLFVDGGFVYMRTTQGPKRVDVIYRRIDDQFLDPLCFRRDSMLGVPGLMDVWRSGGVSIASAPGAGVADDKAVYTFVPEMIRFYLGEEPILNNVQTWTLWKDDDYRYVMANLKDLVVKEVHGSGGYGMLIGPRATKAEIEAFAERIKADPGNYIAQPTLALSTSPTFVDEGVAPRHVDLRPFCLCGDRIELVPGGLTRVALREGSLVVNSSQGGGVKDTWVLSE | not soluble
3 | MAHKKSNRQLIDACRQNFLSHLRLREWRDVHSQLLTVVREHGWRLNEAEATYEQIHLALLTGLLGNLGMKADDDPHYLGARGIKFYLWPGSALAKKAGRWVMAAELVETSRLYARCLAKIEPEWIEKVGAHLLKKSLSEPLEHHHHHH | soluble
4 | MDDREDLVYQAKLAEQAERYDEMVESMKKVAGMDVELTVEERNLLSVAYKNVIGARRASWRIISSIEQKEENKGGEDKLKMIREYRQMVETELKLICCDILDVLDKHLIPAANTGESKVFYYKMKGDYHRYLAEFATGNDRKEAAENSLVAYKAASDIAMTELPPTHPIRLGLALNFSVFYYEILNSPDRACRLAKAAFDDAIAELDTLSEESYKDSTLIMQLLRDNLTLWTSDMQGDGEEQNKEALQDVEDENQ | soluble
5 | MGGGGEDEYESLPTHSVPVHLTAGALAGAVEHCVMFPFDSVKTRMQSLCPCPETKCPTPVHSLMSIVKREGWLRPLRGVNAVAAGSMPAHALYFTVYEKMKGYLTGNSAGHSNTLAYGASGVVATLIHDAIMNPAEVVKQRMQMAFSPYGSSLECARCVYNREGVAAFYRSYTTQLAMNVPFQAIHFMSYEFWQHVLNPEHKYDPKSHLIAGGLAGGLAAALTTPMDCVKTVLNTQQAAEADPANRRIFLQARYRYRGISDAVRTIYSQRGLSGFSCGLQARVIFQVPATALSWSVYELFKFMLSFEGGHSS | not soluble
6 | MNVNIDSEQLFTEEKPKDYAQPEVLCHTFELLSNLHKLLPNRTVEVLHSYRSEEDKRKCEKPEFSGIEKILARHQLPKEINLSPKPSHVPSWKRKIINNISGNWKKCRLWQKSIYEPPMGTIIVRWTKKNLQPSEDLKSVIQRLSALGPIISVTPCGRESAVVVFRDAASACKAVSAFQTMSADSMFHCSWQHRFMSKNKTWSRRYPSKIHAEKKEKHP | not soluble
7 | MEFKNTKKDRLSDLENRFENANKHETNKHEKEDRKKAHTLYISEKVMNSVEEYLNEFGAFRENKSVFVQDAIIFYLEYKKKEMKQMLLDKASKL | not soluble
8 | MGSDKIHHHHHHMNTGASAGVCDAFDRGRFRNAIEVFSSRMPAEIRTARASDVDDLAAIEKAVFSSDRISRRSFRLFIERETAETLVAEVDGRVAGYAIVLFRKGSGVARLYSIAVGPFFGALGIGRQLLTAAEEAAFEHDRMMLRLEVREDNSRAIRIYEQAGYRKIGREPGYYEDGATALRYEKTLRGDLPVATRVPFYQQTCEFTCGPCCLMMAMANFDRGFVPDPVMEIRLWREATTVFMMSGPGGCEPFGLAVSGYESGLAAEIFVSFYGALFLQSVRSEDKRRVMELAQVDFRRRAELYGIPVNCRPFTLDDIRTAIAAGKLVLVLISGFLMFGKKVPHWVLAIGDDGDHILIHDPWVEDERQETILDAANIPVPYGIFMNMAQFGRDGLRAAITLGKRDTQ | not soluble
9 | MKKIVTATIATAGLATIAFAGHDAQAAEQNNNGYNSNDAQSYSYTYTIDAQGNYHYTWTGNWNPSQLTQNNTYYYNNYNTYSYNNASYNNYYNHSYQYNNYTNNSQTATNNYYTGGSGASYSTTSNNVHVTTTAAPSSNGRSISNGYASGSNLYTSGQCTYYVFDRVGGKIGSTWGNASNWANAAASSGYTVNNTPKVGAIMQTTQGYYGHVAYVEGVNSNGSVRVSEMNYGHGAGVVTSRTISANQAGSYNFIHLEHHHHHH | not soluble
10 | ERVPKTVDVETIRSRIAQIDGVGGVHDVHVWSIDGQQDIATVHVVVDENVNVKDCTTLDRIQKVFHDAGIDHVTVQLEHDTHMSHELPCQH | soluble
11 | VMGNEYPDWIWGLSTTLRYKDWTLGISLDGRVGGMAYSRTEQTMWNTGVHPDSDNKWRYDEVVNGKKNYVGQGVKVVSGKVEYDTTGKIVSDTRVFAPNDTQVSYESYIKNYNPWSGGKVYQNVHDCTFLKLRELSLLYTMPKSVCEKIHMKGVTLGLIGQNLLIWMKEFKYADPDVDSDDLNSPSMRYVGFNVKFDL | not soluble
12 | MAATSRPERVWPDGVIPFVIGGNFTGSQRAVFRQAMRHWEKHTCVTFLERTDEDSYIVFTYRPCGCCSYVGRRGGGPQAISIGKNCDKFGIVVHELGHVVGFWHEHTRPDRDRHVSIVRENIQPGQEYNFLKMEPQEVESLGETYDFDSIMHYARNTFSRGIFLDTIVPKYEVNGVKPPIGQRTRLSKGDIAQARKLYKCPA | soluble
13 | MNNTVIACVDGSPSTRPVCEYAAWAAGKLGAPLALLHVLEKSETPAVSDLTGSIGIDSREQLTEALVRVEGERSRLLMAQGKAVLAGCAELLKQTGQPDAQLLQKHGALDEILAELGEVRLMVLGRRGTQNQVGSHLESVIRLQKNPVLIVPETFTPPARVMFAYDGSSESRKNLTRLTVSPLLHGLSCHIVMVNGDMSALQDAQAVLQEAGITTETRLLEDESVTGALCRYADAHDIDLTVMGACGHSRLRRFFIGSHTTEMLSESRQPLLMLR | not soluble
14 | MTNIFTPIEEALEAYKNGEFLIVMDDEDRENEGDLIMAAELITQEKMAFLVRYSSGYVCVPLSEERANQLELPPMLANRSDRHGTAYTITCDFAEGTTTGISAHDRALTTRSLANPNSKPQDFIKPGHILPLRAVPGLLKKRRGHTEAAVQLSTLAGLQPAGVICELVRDEDGLMMRLDDCIQFGKKHGIKIININQLVEYISK | soluble
15 | GPLGSALEIAEQLTLLDHLVFKSIPYEEFFGQGWMKAEKYERTPYIMKTTKHFNHVSNFIASEIIRNEDISARASAIEKWVAVADICRCLHNYNAVLEITSSINRSAIFRLKKTWLKVSKQTKSLLDKLQKLVSSDGRFKNLRESLRNCDPPCVPYLGMYLTDLVFIEEGTPNYTEDGLVNFSKMRMISHIIREIRQFQQTTYKIDPQPKVIQYLLDESFMLDEESLYESSLLIEPKLPT | soluble
16 | MVKATNVDLSLEDIISKTRKTTGSIQKKSFGGARRGNTRPTGLPRRSGGSGGWKDLDAVQNHGISSRGNDSKVIRVNISNLAPTVISSDLEELFGDYRLSSVSVNFNEHGDSLGTGDISLTKRDAERLVQKFSGVALDGKIMKFAVIDSSNMAGRVDFGNRSRSSPGRSSRGFQSGPRRNNGKPEDFLRDGVHAGDIKRGGAGRGGFRKGGRGGARDAKPKKTEAELDAELEAYMAKRNA | soluble
17 | GSHGRSRFVKKDGHCNVQFINVGEKRNETLVFSHNAVIAMRDGKLCLMWRVGNLQKSHLVEAHVRAQLLKSRITSEGEYIPLDQIDINVGFDSGIDRIFLVSPITIVHEIDEDSPLYDLSKQDIDNADFEIVVILEGMVEATAMTKQCRSSYLANEILWGHRYEPVLFEEKHYYKVDYSRFHKTYEVPNTPLCSARDLAEKKYILSNA | soluble
18 | MDKLDTLTLFVRIVERGSFSAAAADLGVSRPVATAAIKALEVSLGARLLHRTTRHVRPTAEGSLYYQRCVSILAALEEANRSAGGSISGTIRVDVAGNLARTLLLPALPQFLARYPDITLQIGESERDVDLVREGVDCVIRGGHLPDSEMICRPLAGLQEITCASPTYLARYGTPHTIEGLTGHVMIGFVSSRTQRTLPLSFTQDGRQSEVSLPCRLLTSDADVGAEAARLGFGLYQAPLPRLEADLASGALTEVLADFRPAPLPLSLLYPSNRQLSARVQVFIDWVTALMKPPLAQQASGRLK | not soluble
19 | MLFKRPDTETLYFALVNKDPAYEGVAYVCVTSTKIFCRFTCTARKPKIENCRFRETITECLEAGFRPCKRCKPMLSYGTPDGTVTALLTALENEPARRWREEDVVALGHDPSTVRRSFKRRFGMSFLEIARLRRVGDAAESLASGEAVIGAQIDAGYESGSGFRSAINQLFGTSPAAMKGRGFLKGDWIDTPIGPMLAVADDHALHLLEFADRPALPAELKRLKARTGADMVLGRTAVTGQIAAELAAYFAGRSGSFETRLAGHGTPFERDVWRNLREIPAGEIVSYSSLATAMERPTAVRAVARANGANQLAIVVPCHRVLGADGSLTGYGGGLWRKKWLIEHERRMARGLEHHHHHH | soluble
20 | MGSDKIHHHHHHMSNVDHAEIAKFEALAHRWWDRESEFKPLHDINPLRVNWIDERAGLAGKKVLDIGCGGGILSEAMAQRGASVTGIDMGEAPLAVARLHQLESGVAVDYRQITAEQMAEEMPGQFDVVTCLEMLEHVPDPASVIRACHRLVKPGGQVFLSTINRNPKAYLFAVIGAEYILQLLPRGTHDFRKFIRPSELGAWSREAGLEVKDIIGLTYNPLTKHYKLANDVDVNYMVQTKREA | not soluble
21 | GMPSEKQPQSKGNKMAILKLDEHLYISPQLTKADAEQIAQLGIKTIICNRPDREEESQPDFAQIKQWLEQAGVTGFHHQPVTARDIQKHDVETFRQLIGQAEYPVLAYCRTGTRCSLLWGFRRAAEGMPVDEIIRRAQAAGVNLENFRERLDNARV | soluble
22 | GMTVRDENYFTEKYGLTRTHSDVLAAAKVVAPGRTLDLGCGNGRNSLYLAANGYDVTAWDKNPASMANLERIKAAEGLDNLQTDLVDLNTLTFDGEYDFILSTVVMMFLEAQTIPGLIANMQRCTKPGGYNLIVAAMDTPDFPCTVGFPFAFKEGELRRYYEGWDMLKYNEDVGELHRTDENGNRIKLRFATMLARKTA | soluble
23 | MVGIQVQEVMTDKYAKIDISAPLSEAIGIIEKEDPDLILVFDDNVYKGVLTQDLIIRSHLKWDPTKAKVRDIYKPAPVVKPTDDLSHAAKLLLETDLRSLPVGENKAEIIGVISDIALLERVVAEEFGKKKVEEFMTKDVITLTPDDTVAKALAVMRDHGISRIPIVNEEGKLEGLVTLHDLILRFIKPRFKAQTGELVGEKIPPFSMKLREAMIRGVITILPTATVREAVATMKDNDIDGLVVVDEGNKVVGILTVKDLLLPISRMVEKEAKFYLQLGGDASALSDFTRERIINDIKKFVDGYSDLLGNEGIIYLYIRRFNEKFRGVHLYQARMRIVTDKGVFIARGETWGAIQAVHDAIRAIERQLLQKAELERDIRYAKRFIEKLELWR | soluble
24 | MAHHHHHHMPVKRSNKVHKFHEGTGDDNMPVVSMFVVKDGDEPFTRIDVELFVNKVPKACDLFLQTCAFPTVGDKRNAKRGSYKGCRFVRLTKEALQVADGSGPRAVPLSELEAEIGRVNHGVGIASLCRSSTSFDESFFFCLTDNRLELDSLDKRHVAFGRVTGGLDALMGLRDALVPYVQEGCVIVGSPYAVSEVVPKAKQ | soluble
